Source: the domain aggregation screens of Martell et al. (2025)

Test: soluble fraction after stress (log2 fold change); higher = more stays soluble; pooled small domains, quantitative proteomics
Conditions: stress: pH 4
Outline: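 Aggregation propensity here comes from the fold change in the soluble amount of each small protein domain after acid stress, measured in pooled custom libraries by high-throughput quantitative proteomics. The acid stress was pH 4. On the log2 scale, higher values mean more of the domain stayed soluble.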

Sequence	soluble fraction (log2)
HMGADSFTGYTPIHKIDNPSDGINDGASYVVYFQKDGTDPTEFYKAVNANASTLAQLTSGTEYDLASSKKL	-0.722
HMGAEIRDKVRAALAGLNPRAAEIFVMRYFDGYGNREIARLLNTSWSTIAVTLHRTRAKLQKELK	0.0552
HMGAGDKQAQQASLMQIIALQKEGMALGLVEPKHLYHSFSKMIENAGFKDVQSFAVDPSTQQ	-0.199
HMGAGEQMLPKVMFAEGDRVVHKVFGEGTVVTVDRPAQTYDIQFDKLRGTRRIMFRAELEGI	-0.922
HMGAGLDDLVRKSLHNAGLKADDNVVSWISGNLGSDRMVSRMELEKLVLFVAGQSEITLEDAQAVIGD	-0.374
HMGAGLKIGNDHEYANYLEYKVSVEKYAPGAILGEIKQKGIQFNTTISKTTFYRYITDGVFLTITNADLPV	-0.138
HMGALTGQERRAEIMNILRQSTMPLSGAALGKQLGVSRQVVVQDIALLRQSGEEIYATNRGYVTG	≥ 0.43
HMGAQPLIEPLSERELEVLALIAEGLTNAEIGRRLFIATGTVKRHVNTIYGKLDVHGRIEAIARARDLHLI	-0.66
HMGAQRDFELQLIDVIRQNPGLTYKAYGEKLSVSQATVKRLVAKLKETGSIRREGSQRKGTWIITDD	0.252
HMGARWPIQDRPLTATEAAAVRRMYAGGLPHGRSKNSVITEVWGDLSNKPKRLDWLNQALEGGA	0.357
HMGASGVEVPDVAGMSTAQAVSSLEQKGFVVNRTESYDAGVEKGNVISQSPEGGTKAPNGSAVTIRISQGA	0.081
HMGASIQITVNNTPVMLKNKTHYTLVDVLDFYPFDLSKMGGTELYTAINGVKSGFTDPVHANDSIEIYWI	0.196
HMGASSLVGRSARVLQAVTDSDGRIKLAGETWSARLAAGATSTVGPGEEVRVIAIHGATAIVAPV	0.0834
HMGASVGEVESVKTASEIYTAAAGKIVAVNDAVAKDPSLVNSDPYGNGWLVKLEIADLSAINA	-0.304
HMGAVDIATARQLISEIGLPIMLKAEGGGGGRGIFAIHNEAELEDAFFKASTMAQASFGNPRLFVEKF	-0.985
HMGAVFEFIMEEEEPERIDKLLSSALPDLSRSYLQKLVKEGAVLVNKKEVKPNHKVNPGDVVEISVPEPE	-0.744
HMGAVGISQKVTSLETAVLGKNFAKDPLIDRVARLEQTVLPKQAEANASLSLPERVSKLLEKVPIAAG	0.136
HMGAVPKNYFPAVEKGLQDSVQKGLLAGYPVVGVKAILYDGSYHPVDSSEMAFKTATIQAFKKGFMEA	-0.0216
HMGAYIPSYAPVDINAATHTVVRGDTVYNISKRYHVSQEDFRAWNGMADNTLSIGQVVKVKPAGYTAPK	0.22
HMGDAVSRAYFALADDLLKGELTETVSEVLIRTRYELTSAQLQAVLHRIAQEGWAHKKPGYGWEFSAMLT	-1.39
HMGDEHYDTISAFIKSVRGSDPDAALYWLAKMILAGEDPRFILRRLIVLSGEDIGLADPQGI	-0.346
HMGDEPGAGYKWREDVLLRVMSEHGIDESARDDFVRHAVKFDDDDNLYLKKAEIIAAAEAWESSS	-2.05
HMGDFLLQVDFPPALLEMLPEGKRQAAIGVLSHDPRPAYQRTPGRVYGLNFAGHNIRFAVSENLLTVLEV	-0.302

Sequence	soluble fraction (log2)
HMGDFLLTPHRGRSADFVIGNPPYIRLEDVPNDISDAYRAEYASMPGRADIHVGFYEKGLDL	-0.506
HMGDFVIVPDLIGKTIEEFDSELNELNLKYIISDSGNYNPDFKINSVLDQLPNANSKVKGGRKIYITLNAS	-1.48
HMGDGAWQQGEGGRWWYKYNNGTYPKDRVVTIGGKKYGFDSEGWMLSDTTKAFGGTTYSFAADGVATAQA	-0.247
HMGDGYTYYYDDTVLALGFTKIGNDYYIFNTFSGKMYKDATMWVNDNPYGIKGGMHYFDASGKMFV	-0.439
HMGDIFTAEDAKERIDYSGVDGIMLARGIFGNPWLIRDIREYLEYGKILHPVTQLDRVNMAIEHTRKT	-0.25
HMGDIMLLFKENGKVYFLVGNQYTYVKNPTELSAIKTMMKQAGYDTHEHTNTTQVAYIKRLATE	-0.419
HMGDKVLIQTAQRLKKDLPFASIVSRFGGDEFLIFLPGISSTERVETIVKKTVFLFIAISTTLF	-0.0999
HMGDLKSLIQATMDDAGISIKPDAMDYLISHLGSDRLTTRAELDKLILYAGADDKLDLDSVVELVG	-0.794
HMGDLLTVDRVAATSGLGVDTIRYYQRLGLLDPPVRHGRRALYSTAHLDRLVEIRQLADEGFSLAQIATL	-0.816
HMGDLVFDFVHGVHKAAEVEKELVMQALRFTHGNVSRAARLIGMQRSSLRYRIERYRLDAFVMEVAN	-0.0309
HMGDPSSERNIQKSIFILIGEKALSVQDISRSLGMPNDIIDKALISGVERNLWLSSDKGEYYL	-1.04
HMGDRRSVFEQSVLDAIKSLVKQGELATTKAISDHIGTNYQGNVSRAITALLADNKIKKLPKEGVLQPYEA	-0.00881
HMGDSFLDHKKELQSMILSRLDLSREVPDEEIKDIIDELIIAQSKKLFLSLNDRGKLRQELFYSIRK	-0.906
HMGDSVLNDKLNTLAGLDEERFKWVLASLNPNNSYSTHSDKMSALMWLVSYFNDEADLKETVPPLPI	-0.325
HMGDTIFINNNFYVKHIVEFGETIDIISKIYDVSVNKILETNETSTKLYSGQSLFIPININV	-1.99
HMGDTLEIVVIYSNKQKAEEAVNNLKGKFEDLGYNFAIITVDTSKITQLAMESSIQYIEFPKSFYFSD	-1.29
HMGDVATVKLDNNGLLNMRKSDARGADIVARIPNGTVVQVLNRETEWTQVRYDGKEGYVMSSFLQFAE	0.0427
HMGDVPESLVEKAGHSINAKIISAWGMTETGASTMTRPQDDPERAIYSDGVVLPLMDVRVVNDAGLA	-0.271
HMGDWEKALAQFAAHRLANGSTAFLDEMYPIFERILLQAALNKTGGRKIEAAELLGWGRNTLTRKLKELGF	-1.01
HMGDYERVPEYKGKLTSDLTMEDSQKFAFRFIWQNSDEDEGKIIDQDPPAGKSVAKGSEIVLYVSNG	-0.0695
HMGEAAIYRINILINNLNVRSGPGTLYPRLRRADFPGEYDIFEEKNGFGRISNTKSEWVSLNTQYVQRLT	0.158
HMGEAIPVPDLKHKALTDAEHLVHELGLEIQVVDTGYVKSLPADYILGQSLAPGEKVKSGHIIYVTINSP	0.0193
HMGEGTAVGKALKFLAAQGKKFAPELLDMAGSLTGVEALSKLGDAIKGDPELSELDKRILLAELETDAV	-0.744

Sequence	soluble fraction (log2)
HMGEIHALIPGLVSRLFVKPGDRVENGQGLLILEAMKMENEIDSPISGVVGKIYIKAGDKVEKGELIMEIN	0.115
HMGEIVVPDLIGKSLTEATRILSDSTLTVGKVNYQISSTLLPNTVLDQYPAPGNKLNSGNTVDLFITKE	-0.0586
HMGEKTLSEKVYDRLKELIMDGELERGTKITETSIAKMFDVSPTPVREAFRKLASDGLIEVASWKGVIVKG	0.338
HMGELYGTDQYKDGDAQDTNIGKLLEVNIDGKWQVATTGTSRFEFAGVMDDNGHKLIMISVLPEAKTV	-0.647
HMGEPLSPDARALTNVLRHYRGWAEPGELARKSGLGSRERVLTAAQSLVNAGLADIERGMVRPTAALMEVQ	-0.0354
HMGEPVASSREVAKRFGKEHKHVLAAIRQILVAENSATKFFHETAFEYRGQRFPEYLMNRDGFALLAMGF	-1.35
HMGEPVNSPMPGTILRVEVTQGAAVKEGQLLVVLEAMKMENEILAPKDGTVAQVVVQKGSHVETGSPLIVL	-0.429
HMGEQLALLERARTLLEDETLETEVQKELEMLLEDIEAARAEANATQLEDLFEELADLLFDLE	-0.193
HMGEQYYVLIDNKQNGPHNINAIQKMIDQNIVNRQTLIWKKGMTDWGNIMDDKDLKEMVNKIP	0.0559
HMGERMELTLDNPREAIPVLDAMGFANYQVVDKEHIHIFERLNESALVNMELAKAGIPVKGISITSE	-0.523
HMGESEWIVKWRGEKRDEERLQESELVRDDPEHRISVVRPRDDVDASAWLNRWRKSRYVQYIQPNHRVTIS	0.0349
HMGESFPYVAYATDSVRLRARPSSSATILTVIRKGDAVLITGADGSYKIVEYEGRKGYVVSAFLSSQET	-0.00452
HMGESVQVPSYVGMGFREAARKARARDFGVAVSDSIYVPGKPPGEIIAQDPKAESRVKEGRTIYFTVAK	-0.0612
HMGETAFRYALPLDQGEALKRSHVIRQSISPDDALATRVTVLEDVLDQTLRQPVQAGEVLLEDHFTR	-0.682
HMGETRWTYDDFGNILTEKAAPYSATEFLGKTYTYDTDNRYLKTVTDALGRTTTTLSYDKYGNPLSVMD	-0.357
HMGETWYEILEISSDATTEEIRQAYFEQARQYHPDTNPGELAREWFYQVQEAYETLSDPDRRRQYDESIKG	-2.16
HMGEVEVPDLVGIEAIQAKTLLFNSDFLIKEFYDYDPTQPIGVVIRQAPEAGTTQTIGDSVTITINRA	-0.0721
HMGEVISRSYPLLKTKAKPAEVSEALQKLIKAPATVTFDEKNEVFHINATRLQHTWAEGYFKGLHGK	-0.172
HMGEVPPGWSVEALAAIERDLAHHVGPVARVLVQRGARLHTTTDDLRSALANAITDDLARRRFMQP	-0.635
HMGFEALRSRHRITAREMEVLQHMLAGRSNAEIGHTLGLSERTVKTHITSIFNKLGVDSRAQLGYMLK	0.366
HMGFLTKTQRLEILLHLKDEPYYNVEKLKELIKNRYGIVYQSSQSYYDLLKEAGLSWHQTQA	0.00834
HMGFVTVTEVDTTADLKLARVYVSVLGPEEQWAKSFTALESARGFVWNWLRKHLDLRVTPQLAF	-1.74
HMGGASVTDQQIRDFVSAHTDDPMAIYKAAVANGISSARLAQVTGISIADIEAFVRKNNLPSF	-0.206
